According to US12410234B2, “Compositions and methods for retrieving tumor-related antibodies and antigens” (THE TRUSTEES OF THE UNIVERSITY OF PENNSYLVANIA, priority 2018, dated 2025):

Tests used:
[1] = test system: patient-derived AML cells; assay: sCAR T plus Nb switch in patient-derived AML NSG mice; format: in vivo; conditions: sCAR T cells plus switch compared to sCAR T cell alone
From the text: (§1) FIGS. 6A-6H are series of images and graphs depicting that Nb switch-activated CAR T cells eradicate AML in vivo in a controllable manner. FIGS. 6A-6B: Schematic diagram of switchable CAR T system. The Nb157 was expressed and purified by fusing with PNE, a fourteen amino acid peptide, either at N terminal or C terminal of the Nanobody. Primary human T cells were engineered by lentivirus transduction of scFv CAR that recognized PNE specifically. FIG. 6C: Test the affinity of Nb157, Nb157-N-PNE or Nb157-C-PNE against THP-1 cells by flow cytometry analysis. FIG. 6D: Killing assay of Nb157-PNE-mediated sCAR system against THP-1 cells in series of switch concentrations. […] The engraftment volumes were monitored by measuring the lengths and widths of the tumors. […] The primary leukemia or CAR T cells in the mouse peripheral blood were monitored by staining with CD33 or CD3 fluorescence labeled antibodies.
It was explored whether the switch CAR system can also suppress primary AML cells in mice. To this end, patient-derived AML cells were injected into the NSG mice to build leukemic mice model as determined by detection of the human CD33+ AML cells in the peripheral blood of the recipient mice (FIG. 6G). […] The appearance of CD33+ AML cells or CD3+ T cells in peripheral blood were monitored by flow cytometry analysis weekly.

THP-1 tumors = assay: sCAR T plus Nb switch in THP-1 xenograft NSG mice; format: in vivo; conditions: with sCAR T cells
From the text: as §1, with “concentrations. The ratio of sCAR T to THP-1 was 2:1 and assay was performed after 16 hours incubation. FIG. 6E: 10 million THP-1 cells were transplanted into NSG mice subcutaneously to form the 150 mm^3 of tumors.” for “concentrations.”
To determine whether the inducible switch, in concert with the sCAR T cells, can kill tumor in mice, THP-1 cells were transplanted into NSG mice subcutaneously to form tumors. […] It was determined whether resumption of the Nb157 switch injection suppress the tumor growth again. […]

THP-1 cells = assay: Killing assay of Nb157-PNE-mediated sCAR system; format: cell-based, human; conditions: sCAR T to THP-1 2:1, 16 hours
From the text: as §1, with “concentrations. The ratio of sCAR T to THP-1 was 2:1 and assay was performed after 16 hours incubation. FIG. 6E: 10 million THP-1 cells were transplanted into NSG mice subcutaneously to form the 150 mm^3 of tumors.” for “concentrations.”
Killing assays were performed as previously described (Cao, L. F. et al. (2010) Cytometry A 77, 534-545). […] Quantification were calculated by either Countbright beads or volume.

BT474 cells = assay: Flow cytometry binding of VHH1 to BT474 cells; design: species or system human
human full length CDH17 = target: T1, human full length CDH17 (Homo sapiens, UniProt Q12864); assay: Flow cytometry of VHH1 phage on HEK293T cells transfected with human CDH17; format: binding; conditions: screen of ~3000 cell surface proteins
T1 construct: expressed in transfected cells; host or cells: HEK293T
T1 sequence (Q12864 23-832): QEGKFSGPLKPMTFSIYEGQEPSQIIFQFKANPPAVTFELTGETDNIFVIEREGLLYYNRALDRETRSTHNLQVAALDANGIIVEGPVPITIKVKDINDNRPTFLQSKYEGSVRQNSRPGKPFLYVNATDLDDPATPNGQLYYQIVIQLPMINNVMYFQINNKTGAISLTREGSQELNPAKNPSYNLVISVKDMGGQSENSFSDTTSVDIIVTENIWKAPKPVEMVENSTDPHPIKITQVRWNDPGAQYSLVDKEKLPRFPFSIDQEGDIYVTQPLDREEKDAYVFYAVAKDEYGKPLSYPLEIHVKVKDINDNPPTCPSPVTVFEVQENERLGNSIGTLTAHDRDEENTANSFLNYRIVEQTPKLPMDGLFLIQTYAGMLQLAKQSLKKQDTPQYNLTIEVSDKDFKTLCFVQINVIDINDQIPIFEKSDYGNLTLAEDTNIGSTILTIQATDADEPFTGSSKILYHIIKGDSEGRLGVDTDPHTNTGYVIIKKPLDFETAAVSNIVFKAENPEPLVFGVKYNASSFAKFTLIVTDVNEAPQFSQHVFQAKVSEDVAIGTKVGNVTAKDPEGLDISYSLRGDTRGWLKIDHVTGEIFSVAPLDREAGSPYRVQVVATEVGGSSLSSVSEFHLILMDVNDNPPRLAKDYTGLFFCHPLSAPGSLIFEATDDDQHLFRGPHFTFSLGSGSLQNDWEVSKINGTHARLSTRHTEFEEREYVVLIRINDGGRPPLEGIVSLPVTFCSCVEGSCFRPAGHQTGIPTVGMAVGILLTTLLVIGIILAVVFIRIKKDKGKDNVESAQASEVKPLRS
From the text: (§2) FIGS. 12A-12D are a series of graphs and images depicting isolation of VHH1 from a llama-derived […] antibody phage display naive library by panning to BON cells, as described in FIG. 1A. VHH1 was isolated from phage library and specifically bound human neuroendocrine tumor (NET) BON cells in vitro, but not other tumor cells such as breast cancer cells or leukemia cells, by positive or negative pannings, as illustrated in FIG. 1. […] FIG. 12B depicts the antigen of VHH1 is CDH17 (through DNA sequencing individual phage clones that specifically bound BON cells), as identified by screening the transfected cells. Flow analysis of VHH1 binding to CDH17 overexpressed in 293 cells is shown.
(§3) Next, to identify the protein antigen of the isolated VHH1 nanobody, ˜3000 human cell membrane protein cDNAs were prepared and transfected into HEK293T cells individually, followed by flow cytometry analysis with the VHH1-expressing phage and FITC-labeled secondary antibody against phage M13 protein (FIG. 12A). […] Human or mouse CDH17 cDNA was transiently transfected into HEK293T cells, followed by flow cytometry analysis with the VHH1-expressing phage and FITC-labeled secondary antibody against phage M13 protein.

EC1 domain of CDH17 [2] = assay: Flow analysis of VHH1 on CDH17 truncations in HEK293T cells; format: binding, human
From the text: (§4) FIGS. 22A-22C are series of images and graphs depicting that the VHH1 binds to the EC1 domain of CDH17. FIG. 22A is a schema showing human CDH17 truncations. […] FIG. 22C is a schematic diagram of CDH17 structure showing VHH1 binds to the N-terminal EC1 domain of CDH17.
(§5) In order to further confirm the antigen of VHH1 is CDH17, several CDH17 internal truncations were constructed. The truncations were transfected into HEK293T cells. […] Additionally, several CDH17 internal truncations were constructed (FIG. 22A) and transfected into HEK293T cells. Flow cytometry analysis was performed with the purified VHH1 nanobody and APC labeled anti-HA secondary antibody against HA on VHH1 nanobody. […] CDH17, a cell adhesion protein highly expressed in human NETs. CDH17 is a cell adhesion protein highly expressed in human NETs. […] One nanobody, named VHH1 was identified that specifically binds to CDH17 protein. […] VHH1 was sequenced and confirmed to contain the conserved VHH sequence (FIG. 14).

EC1 domain of CDH17 [3] = target: T2, EC1 domain of CDH17 (Homo sapiens, UniProt Q12864); assay: as above; format: binding
T2 construct: expressed in transfected cells; host or cells: HEK293T
T2 sequence (Q12864 23-832): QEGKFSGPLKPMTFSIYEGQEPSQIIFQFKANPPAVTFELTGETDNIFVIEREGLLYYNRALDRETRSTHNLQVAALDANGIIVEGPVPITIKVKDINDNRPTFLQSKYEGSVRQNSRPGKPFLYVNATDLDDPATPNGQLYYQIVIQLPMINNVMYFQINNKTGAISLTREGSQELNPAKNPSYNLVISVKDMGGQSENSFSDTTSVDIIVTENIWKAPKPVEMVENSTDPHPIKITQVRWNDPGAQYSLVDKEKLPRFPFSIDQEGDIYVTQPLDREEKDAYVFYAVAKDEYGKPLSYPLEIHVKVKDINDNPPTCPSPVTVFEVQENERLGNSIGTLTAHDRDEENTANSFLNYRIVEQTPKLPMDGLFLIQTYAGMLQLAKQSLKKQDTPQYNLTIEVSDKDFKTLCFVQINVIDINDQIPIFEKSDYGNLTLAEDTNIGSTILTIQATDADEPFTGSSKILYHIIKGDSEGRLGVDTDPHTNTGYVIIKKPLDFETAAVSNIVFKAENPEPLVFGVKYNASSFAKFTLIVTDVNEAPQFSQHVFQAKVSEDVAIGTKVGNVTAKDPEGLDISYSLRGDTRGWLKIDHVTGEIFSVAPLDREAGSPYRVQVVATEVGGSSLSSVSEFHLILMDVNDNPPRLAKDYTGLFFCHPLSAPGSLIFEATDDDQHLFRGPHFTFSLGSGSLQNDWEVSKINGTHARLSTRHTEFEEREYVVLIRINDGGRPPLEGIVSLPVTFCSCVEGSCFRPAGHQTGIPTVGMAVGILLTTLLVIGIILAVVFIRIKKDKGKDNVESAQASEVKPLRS
From the text: as §4, §5

NT-3 cells = assay: Flow analysis of VHH1 binding to NT-3 cells; design: species or system human
[4] = test system: human pancreatic neuroendocrine tumor (PNET) samples; assay: Flow cytometry binding of VHH1 to human PNET biopsy samples; conditions: four fresh samples via biopsy from liver
BON cells [5] = assay: Flow cytometry binding of VHH1 to BON cells; design: species or system human
mouse CDH17 = target: T3, mouse CDH17 (Mus musculus, UniProt Q9R100); assay: Flow cytometry of VHH1 phage on HEK293T cells transfected with mouse CDH17; format: binding; conditions: transiently transfected HEK293T
T3 construct: expressed in transfected cells; host or cells: HEK293T
T3 sequence (Q9R100 26-827): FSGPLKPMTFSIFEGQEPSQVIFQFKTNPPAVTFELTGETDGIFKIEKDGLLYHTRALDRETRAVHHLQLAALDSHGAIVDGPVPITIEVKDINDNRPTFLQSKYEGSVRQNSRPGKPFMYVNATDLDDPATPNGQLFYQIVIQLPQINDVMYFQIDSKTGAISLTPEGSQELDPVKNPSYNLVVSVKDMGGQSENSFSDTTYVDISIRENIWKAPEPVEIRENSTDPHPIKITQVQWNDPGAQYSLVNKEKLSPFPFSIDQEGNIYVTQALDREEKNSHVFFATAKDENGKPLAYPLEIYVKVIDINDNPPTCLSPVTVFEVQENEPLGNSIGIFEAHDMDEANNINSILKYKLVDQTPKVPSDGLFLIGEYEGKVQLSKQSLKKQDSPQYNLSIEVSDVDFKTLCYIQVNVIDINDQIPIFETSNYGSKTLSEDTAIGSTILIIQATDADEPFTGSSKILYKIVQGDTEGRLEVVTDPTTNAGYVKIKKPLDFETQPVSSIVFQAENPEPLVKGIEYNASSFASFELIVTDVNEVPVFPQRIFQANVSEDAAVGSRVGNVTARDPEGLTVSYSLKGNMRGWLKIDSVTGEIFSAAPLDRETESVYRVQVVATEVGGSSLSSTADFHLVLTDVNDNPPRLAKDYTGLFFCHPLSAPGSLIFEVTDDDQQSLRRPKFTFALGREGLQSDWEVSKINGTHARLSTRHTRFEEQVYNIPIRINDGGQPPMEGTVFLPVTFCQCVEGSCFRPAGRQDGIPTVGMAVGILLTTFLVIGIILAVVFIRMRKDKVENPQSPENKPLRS
From the text: as §2, §3

BON cells [6] = assay: Flow cytometry binding of VLV or VLV-DM1 to BON cells; design: species or system human
Method: (§6) Scale bar: […]. […] Scale bar: […].

BON cells [7] = assay: In vitro killing of BON cells by ADC (MTT assay)
QGP1 cells = assay: Flow cytometry binding of VLV or VLV-DM1 to QGP1 cells
Method: as §6

[8] = test system: CDH17-negative QGP1 cells; assay: In vitro killing of QGP1 cells by ADC (MTT assay); format: cell-based; conditions: cytotoxicity assay
Method: as §6

B1: Nb157-C-PNE: Nb157 with C-terminal PNE, a fourteen amino acid peptide; inducible nanobody switch (protein)
chain: AAQAAQVQLQESGGGLVQPGGSLSLSCTASGFTFSSYSMAWVRQAPGKGPEWVSGIYPSDGKTRYADFVKGRFSISRDNAKNMLYLQMNNLEPEDTALYYCARGITGLGPRGQGTQVTVSSAA
modifications: left off: small tags and cut ends
notes: Nb157 with C-terminal PNE, a fourteen amino acid peptide; inducible nanobody switch
- survival (Kaplan Maier) [1]: significantly protected the leukemic mice from dying
- tumor growth, THP-1 xenograft (THP-1 tumors; first five times of switch injection): significantly slowed down growth
- tumor size (THP-1 tumors; switch restarted from day 21, day 52): almost undetectable
- switch-triggered killing of THP-1 cells by sCAR T cells (THP-1 cells): potently triggered the killing of THP-1 cells by the sCAR T cells

B2: VHH1: llama nanobody binding the EC1 domain of CDH17, SEQ ID NO: 2 (protein)
VHH: QVQLQESGGGLVQPGGSTRLSCVSSRTFSYYDMGWFRQAPGKEREFVALLSWNGENAEYSDSVMGRFTVSRGNTQNSVNLQMNNLKPEDTGIYYCAVTHGGARSVRSWGQGTQVTVSS
modifications: VHH1 nanobody
- binding to BT474 cells (BT474 cells): cannot be bound by VHH1
- binding to human CDH17 (human full length CDH17): only bound to human full length CDH17
- binding to EC1 domain deleted truncation Del-1 (EC1 domain of CDH17 [2]): completely lost the function to interact with VHH1 nanobody
- binding domain on CDH17 (EC1 domain of CDH17 [3]): binds to the EC1 domain at the N-terminal part of CDH17
- binding to NT-3 cells (NT-3 cells): robustly bound by VHH1
- binding to human PNET samples [4]: robustly bound by VHH1
- binding to BON cells (BON cells [5]): can be bound by VHH1
- binding to mouse CDH17 (mouse CDH17): bound both human and mouse CDH17

B3: VLV-DM1 (conjugate)
VHH 1: QVQLQESGGGLVQPGGSTRLSCVSSRTFSYYDMGWFRQAPGKEREFVALLSWNGENAEYSDSVMGRFTVSRGNTQNSVNLQMNNLKPEDTGIYYCAVTHGGARSVRSWGQGTQVTVSS
VHH 2: QVQLQESGGGLVQPGGSTRLSCVSSRTFSYYDMGWFRQAPGKEREFVALLSWNGENAEYSDSVMGRFTVSRGNTQNSVNLQMNNLKPEDTGIYYCAVTHGGARSVRSWGQGTQVTVSS
modifications: left off: things letters cannot carry; small tags and cut ends
- binding to BON cells (BON cells [6]): bound to BON cells, albeit with slightly reduced affinity
- lysis of BON cells (morphology) (BON cells [7]; at 4 nM, microscopic observation): lysed the BON cells
- killing of BON cells (BON cells [7]; cytotoxicity assay): significantly killed BON cells
- binding to QGP1 cells (QGP1 cells): but not QGP1 cells
- killing of QGP1 cells [8]: but not CDH17-negative QGP1 cells
